Measurements reported in patent publication US20130184160, “NUCLEOTIDES AND APTAMERS CONTAINING BORONIC ACID GROUPS HAVING BIASED BINDING TO GLYCOSYLATED PROTEINS, AND USES THEREOF” (published 2013).

Key:
[1] = target: T1, Fibrinogen (glycosylated, untreated) (UniProt P02671-2;P02675;P02679 P02671-2:20-644,P02675:31-491,P02679:27-453); test: filter; same buffer; 193 nM in Table 1; details: chain copies: 2; label: alpha-32P-dATP
Description: (§1) Dissociation constants in solution were determined by equilibrium filtration (Jenison et al., Science 1994, 263, 1425-1429; Huang & Szostak, RNA 2003, 9: 1456-1463, incorporated herein by reference in their entireties). Using this technique, the bound and unbound ligand (DNA) partition between the two portions separated by a membrane. DNA was first amplified into dsDNA using two primers by PCR (25 cycles of 0.5 min at 94° C., 0.5 min at 46° C., and 0.5 min at 72° C., followed by 5 min at 72° C.). The dsDNA product was then split into ssDNA using one primer and α-³²P-dATP by one-round PCR. The ³²P-labeled ssDNA ligand (10 nM) and the protein (1-1000 nM) in the 100 μL of binding buffer were incubated for 15 min at 25° C. prior to loading into the Microcon YM-100 unit (Millipore, Billerica, Mass.). The solution was centrifuged at 13,000 g for 10 sec to saturate the membrane, and the filtrate was transferred back to the unit. […] Aliquots (10 μL) were taken from both the remaining solution and the filtrate, and radioactivity in each aliquot was determined by Beckman LS 6500 liquid scintillation counter. […]
(§2) To determine the extent to which the aptamers 85A (SEQ ID NO.: 13), 85B (SEQ ID NO.: 14), and 85C (SEQ ID NO.: 15) bind specifically to fibrinogen, their dissociation constants (Kd) were measured using the equilibrium filtration method with radiolabeled α-³²P-dATP. […]

[2] = target: Fibrinogen, deglycosylated (UniProt P02671-2;P02675;P02679 P02671-2:20-644,P02675:31-491,P02679:27-453); test: filter; same buffer; details: tags: chemically deglycosylated with TFMS; chain copies: 2; label: alpha-32P-dATP
Chain of Fibrinogen, deglycosylated (P02671 other isoform, or with tags, fused parts or gaps, chain 1 of 3): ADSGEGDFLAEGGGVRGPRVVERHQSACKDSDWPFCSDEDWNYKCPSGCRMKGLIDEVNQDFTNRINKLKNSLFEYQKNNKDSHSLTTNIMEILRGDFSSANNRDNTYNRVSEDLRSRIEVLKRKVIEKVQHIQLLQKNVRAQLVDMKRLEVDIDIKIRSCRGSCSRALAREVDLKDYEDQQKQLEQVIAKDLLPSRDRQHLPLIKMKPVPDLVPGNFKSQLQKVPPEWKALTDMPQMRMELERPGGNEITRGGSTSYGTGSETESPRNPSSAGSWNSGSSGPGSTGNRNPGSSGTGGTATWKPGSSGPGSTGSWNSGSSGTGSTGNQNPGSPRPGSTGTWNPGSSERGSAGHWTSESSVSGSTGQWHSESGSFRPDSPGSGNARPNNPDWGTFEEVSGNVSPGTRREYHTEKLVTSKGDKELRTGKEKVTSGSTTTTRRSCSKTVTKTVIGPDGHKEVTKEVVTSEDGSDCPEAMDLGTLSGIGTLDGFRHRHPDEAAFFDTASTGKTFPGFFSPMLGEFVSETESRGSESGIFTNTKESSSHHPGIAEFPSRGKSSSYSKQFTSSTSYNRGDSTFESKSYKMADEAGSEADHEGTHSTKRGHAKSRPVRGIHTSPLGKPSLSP
Chain of Fibrinogen, deglycosylated (P02675 31-491, chain 2 of 3): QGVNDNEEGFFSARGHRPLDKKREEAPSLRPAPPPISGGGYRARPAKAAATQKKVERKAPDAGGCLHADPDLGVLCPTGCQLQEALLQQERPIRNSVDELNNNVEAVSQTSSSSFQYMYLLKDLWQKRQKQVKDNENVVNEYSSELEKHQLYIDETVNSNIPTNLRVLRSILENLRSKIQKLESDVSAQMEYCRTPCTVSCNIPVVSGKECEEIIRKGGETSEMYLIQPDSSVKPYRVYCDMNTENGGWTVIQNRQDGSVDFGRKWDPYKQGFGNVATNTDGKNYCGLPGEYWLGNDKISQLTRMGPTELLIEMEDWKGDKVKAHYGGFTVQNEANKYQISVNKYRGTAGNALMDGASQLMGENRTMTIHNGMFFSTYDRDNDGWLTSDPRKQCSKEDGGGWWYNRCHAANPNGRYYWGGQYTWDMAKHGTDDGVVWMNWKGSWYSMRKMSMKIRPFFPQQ
Chain of Fibrinogen, deglycosylated (P02679 27-453, chain 3 of 3): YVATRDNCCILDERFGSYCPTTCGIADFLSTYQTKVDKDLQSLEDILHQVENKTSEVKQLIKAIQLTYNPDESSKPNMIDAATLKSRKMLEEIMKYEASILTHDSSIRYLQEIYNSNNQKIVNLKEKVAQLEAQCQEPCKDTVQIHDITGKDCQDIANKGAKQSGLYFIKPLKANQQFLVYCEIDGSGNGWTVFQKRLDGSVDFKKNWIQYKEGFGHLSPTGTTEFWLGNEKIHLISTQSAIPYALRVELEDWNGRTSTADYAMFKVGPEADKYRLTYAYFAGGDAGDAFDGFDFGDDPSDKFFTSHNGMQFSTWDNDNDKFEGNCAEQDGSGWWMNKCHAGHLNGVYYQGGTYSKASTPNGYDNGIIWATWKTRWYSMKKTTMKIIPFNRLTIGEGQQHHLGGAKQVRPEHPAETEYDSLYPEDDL
Description: (§3) Dissociation constants in solution were determined by equilibrium filtration (Jenison et al., Science 1994, 263, 1425-1429; Huang & Szostak, RNA 2003, 9: 1456-1463, incorporated herein by reference in their entireties). Using this technique, the bound and unbound ligand (DNA) partition between the two portions separated by a membrane. DNA was first amplified into dsDNA using two primers by PCR (25 cycles of 0.5 min at 94° C., 0.5 min at 46° C., and 0.5 min at 72° C., followed by 5 min at 72° C.). The dsDNA product was then split into ssDNA using one primer and α-³²P-dATP by one-round PCR. The ³²P-labeled ssDNA ligand (10 nM) and the protein (1-1000 nM) in the 100 μL of binding buffer were incubated for 15 min at 25° C. prior to loading into the Microcon YM-100 unit (Millipore, Billerica, Mass.). The solution was centrifuged at 13,000 g for 10 sec to saturate the membrane, and the filtrate was transferred back to the unit. The solution was centrifuged for another 20 sec, and the filtrate (about 10 μL) was collected. Aliquots (10 μL) were taken from both the remaining solution and the filtrate, and radioactivity in each aliquot was determined by Beckman LS 6500 liquid scintillation counter. All binding assays were duplicated. The equilibrium dissociation constants (Kd) of the ligand-protein interaction were obtained by fitting the dependence of bound fractions of specific binding on the concentration of the […] to the equation Y=B max X/(Kd+X), using the SigmaPlot program.
(§4) To determine the extent to which the aptamers 85A (SEQ ID NO.: 13), 85B (SEQ ID NO.: 14), and 85C (SEQ ID NO.: 15) bind specifically to fibrinogen, their dissociation constants (Kd) were measured using the equilibrium filtration method with radiolabeled α-³²P-dATP. The target substrate to which the aptamer was binding was fibrinogen (FIG. 12A), deglycosylated fibrinogen (FIG. 12B) and periodated fibrinogen (FIG. 12C).

[3] = target: Fibrinogen, periodate-treated (UniProt P02671-2;P02675;P02679 P02671-2:20-644,P02675:31-491,P02679:27-453); test: filter; same buffer; details: tags: glycans oxidised with sodium periodate; chain copies: 2; label: alpha-32P-dATP
Chain of Fibrinogen, periodate-treated (P02671 other isoform, or with tags, fused parts or gaps, chain 1 of 3): as the sequence (P02671 other isoform, or with tags, fused parts or gaps, chain 1 of 3) above
Chain of Fibrinogen, periodate-treated (P02675 31-491, chain 2 of 3): as the sequence (P02675 31-491, chain 2 of 3) above
Chain of Fibrinogen, periodate-treated (P02679 27-453, chain 3 of 3): as the sequence (P02679 27-453, chain 3 of 3) above
Description: as §3, §4

[4] = target: T1, Fibrinogen (glycosylated, untreated); test: filter; same buffer; 64 nM in Table 1; details: chain copies: 2; label: alpha-32P-dATP
Description: as §1, §2

[5] = target: T1, Fibrinogen (glycosylated, untreated); test: filter; same buffer; 102 nM in Table 1; details: chain copies: 2; label: alpha-32P-dATP
Description: as §1, §2

[6] = target: T2, Fetuin (UniProt P12763 P12763:19-359); test: filter; specificity control; details: label: alpha-32P-dATP
T2 sequence: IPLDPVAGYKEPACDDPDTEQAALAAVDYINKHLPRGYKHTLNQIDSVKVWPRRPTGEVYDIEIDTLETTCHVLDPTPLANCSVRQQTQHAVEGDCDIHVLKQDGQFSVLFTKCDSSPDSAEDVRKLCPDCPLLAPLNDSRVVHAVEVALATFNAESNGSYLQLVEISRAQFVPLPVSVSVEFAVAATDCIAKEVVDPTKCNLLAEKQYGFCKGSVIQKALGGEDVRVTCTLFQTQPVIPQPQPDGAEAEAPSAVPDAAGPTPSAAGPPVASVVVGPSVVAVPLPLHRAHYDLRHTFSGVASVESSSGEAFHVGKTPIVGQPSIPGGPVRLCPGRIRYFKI

[7] = target: Alpha-1 acid glycoprotein (UniProt P02763 P02763:19-201); test: filter; specificity control; details: label: alpha-32P-dATP
Chain of Alpha-1 acid glycoprotein (P02763 19-201, one chain of several): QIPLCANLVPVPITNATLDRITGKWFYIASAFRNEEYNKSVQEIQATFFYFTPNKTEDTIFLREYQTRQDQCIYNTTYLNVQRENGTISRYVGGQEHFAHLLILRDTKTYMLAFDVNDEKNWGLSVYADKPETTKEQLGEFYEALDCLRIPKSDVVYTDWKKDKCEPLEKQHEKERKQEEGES

[8] = target: T1, Fibrinogen (glycosylated, untreated); test: filter; same buffer; boronic acid destroyed by peroxide; details: chain copies: 2; label: alpha-32P-dATP
[9] = target: T1, Fibrinogen (glycosylated, untreated); test: filter; same buffer; details: chain copies: 2; label: alpha-32P-dATP
Description: as §3, §4

T1 sequence (P02671 other isoform, or with tags, fused parts or gaps, chain 1 of 3): as the sequence (P02671 other isoform, or with tags, fused parts or gaps, chain 1 of 3) above
T1 sequence (P02675 31-491, chain 2 of 3): as the sequence (P02675 31-491, chain 2 of 3) above
T1 sequence (P02679 27-453, chain 3 of 3): as the sequence (P02679 27-453, chain 3 of 3) above

B1: 85C TTP (ssDNA)
DNA: CCTTCGTTGTCTGCCTTCGTAGTCGACTCTGACGCATGGACGTATCCTGTGCGTATGCATTATGAAGCACACCCTTCAGAATTCGCACCA
Kd [1]: 122 nM
Kd [2]: 256 nM
Kd [3]: 321 nM

B2: 85B TTP (ssDNA)
DNA: CCTTCGTTGTCTGCCTTCGTAGGACCGCAGACATCGACGCAGGGAAATTCCGCAAGTCCAGCCAAATGCCACCCTTCAGAATTCGCACCA
Kd [4]: 63.8 nM
Kd [2]: 140 nM
Kd [3]: 130 nM

B3: 85A TTP (ssDNA)
DNA: CCTTCGTTGTCTGCCTTCGTAGCGGATCGAATTACGCGTTAACGGCAACCGATAACGGGACCGATTGCACACCCTTCAGAATTCGCACCA
Kd [5]: 102 nM
Kd [6]: 1600 nM
Kd [7]: 600 nM
Kd [2]: 60.2 nM
Kd [3]: 67.4 nM

B4: 85A B-TTP H2O2-treated (ssDNA)
DNA: CCTTCGTTGTCTGCCTTCGTAGCGGATCGAATTACGCGTTAACGGCAACCGATAACGGGACCGATTGCACACCCTTCAGAATTCGCACCA
modifications: B-TTP positions with boronic acid oxidised by peroxide
Kd [8]: 173 nM

B5: 85A M-TTP (ssDNA)
DNA: CCTTCGTTGTCTGCCTTCGTAGCGGATCGAATTACGCGTTAACGGCAACCGATAACGGGACCGATTGCACACCCTTCAGAATTCGCACCA
modifications: T positions from M-TTP (alkyne-modified dU without boronic acid)
Kd [9]: 138 nM
